Assay results taken from PMC3957475 (Biochemical Journal, 2014).

T1: Biotinylated GAK (cyclin G-associated kinase) (Homo sapiens, biotin (biotinylated; site and way not stated))
T1 construct: Captured on a CAP chip with the Biotin CAPture kit; the general purification removes the His6 tag
T1 chain: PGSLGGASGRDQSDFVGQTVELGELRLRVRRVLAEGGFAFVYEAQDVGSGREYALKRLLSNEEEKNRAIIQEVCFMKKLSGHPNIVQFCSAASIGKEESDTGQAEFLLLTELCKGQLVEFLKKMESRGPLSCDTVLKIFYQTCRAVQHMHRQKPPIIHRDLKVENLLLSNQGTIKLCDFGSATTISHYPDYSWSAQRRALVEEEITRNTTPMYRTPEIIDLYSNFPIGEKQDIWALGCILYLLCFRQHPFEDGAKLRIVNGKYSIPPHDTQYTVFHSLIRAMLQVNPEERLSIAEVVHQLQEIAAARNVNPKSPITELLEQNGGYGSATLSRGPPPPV

B1: NbGAK_1 (VHH)
VHH: QVQLQESGGGLVQPGGSLRLSCSASGFKFNDSYMSWVRRVPGKGLEWVAGIWEDSSAAHYRDSVKGRFTISRDNAKNMLYLQMSSLKSDDTGLYYCVRRGYSGDYRPINNPSSQGTQVTVSS
notes: about 120 amino acids; structure of the complex with GAK deposited here (one of PDB 4C57, 4C58, 4C59); From a GAK-immunised dromedary, phage display vector pMECS, which adds an HA and a His tag
B2: NbGAK_4 (VHH)
VHH: QVQLQESGGGSVQAGGSLRLSCGASEYTSRMGWFRQAPGAEREGVACIHRQSNLSYYSDSVRGRFTISQDNAKTTAFLLMSSLKPEDTAIYYCATTTDCAAFVERATAITAGQGTQVTVSS
notes: about 120 amino acids; structures of the complex with GAK deposited here (among PDB 4C57, 4C58, 4C59); From a GAK-immunised dromedary, phage display vector pMECS, which adds an HA and a His tag

Columns and labels:
[1] = molecular target: T1, Biotinylated GAK (cyclin G-associated …); assay: SPR; same SPR experiment as the kinetic fit (biotinylated GAK on CAP chip, 25°C, 50 mM Tris/HCl pH 7.4, 150 mM NaCl); steady-state analysis; details: both partners purified
[2] = molecular target: T1, Biotinylated GAK (cyclin G-associated …); assay: SPR; Biacore 3000, 25°C, 30 μl/min; biotinylated GAK captured on CAP chip (60-120 RU); nanobodies injected in serial 2-fold dilutions for 3 min; 50 mM Tris/HCl pH 7.4, 150 mM NaCl, 50 μM EDTA, 0.005% Tween 20; kinetic global fit, 1:1 Langmuir model; details: both partners purified

Row | Binder | Kd [1] | Kd [2]
1 | B1 | 60.3 nM | 59.9 nM
2 | B2 | 12.8 nM | 10.3 nM
